Substitutions are numbered along the chain they refer to. Names and notes keep the numbering of the source.
B1: FGF4 (Gly79-Leu206) Y87A (ligand)
chain: GIKRLRRLACNVGIGFHLQALPDGRIGGAHADTRDSLLELSPVERGVVSIFGVASRFFVAMSSKGKLYGSPFFTDECTFKEILLPNNYNAYESYKYPGMFIALGKNGKTKKGNRVSPTMKVTHFLPRL
B2: FGF4 (Gly79-Leu206) Y166A (ligand)
chain: B1 chain with A9Y, Y88A
B3: FGF4 (Gly79-Leu206) L203A (ligand)
chain: B1 chain with A9Y, L125A
B4: FGF4 (Gly79-Leu206) R205A (ligand)
chain: B1 chain with A9Y, R127A
B5: FGF4 (Gly79-Leu206) F129A (ligand)
chain: B1 chain with A9Y, F51A
B6: N-terminal truncated wild-type FGF4 (Gly79-Leu206) (ligand)
chain: B1 chain with A9Y
B7: FGF4 (Gly79-Leu206) F151A (ligand)
chain: B1 chain with A9Y, F73A
B8: FGF4 (Gly79-Leu206) E159A (ligand)
chain: B1 chain with A9Y, E81A
B9: FGF4 (Gly79-Leu206) E117A (ligand)
chain: B1 chain with A9Y, E39A
B10: FGF4 (Gly79-Leu206) L162A (ligand)
chain: B1 chain with A9Y, L84A
B11: FGF4 (Gly79-Leu206) H201A (ligand)
chain: B1 chain with A9Y, H123A

Assays:
[1] = biological target: FGFR2 over-expressed on CHO cells (CHO-FGFR2) and on 32D cells (32D-FGFR2) (UniProt P21803); experiment: cell-based or functional assay
[2] = biological target: FGFR2 over-expressed on CHO cells (CHO-FGFR2) and on 32D cells (32D-FGFR2) (UniProt P21803); experiment: competition of unlabeled protein with 125I-FGF4 (Gly79-Leu206) for CHO-FGFR2 cells, +heparin

Binder	DNA Synthesis NIH 3T3 cells (ED50 mutant/ED50 wild-type), +heparin (ratio ED50 mutant/ED50 wild-type) [1]	DNA Synthesis NIH 3T3 cells (ED50 mutant/ED50 wild-type), -heparin (ratio ED50 mutant/ED50 wild-type) [1]	IC50 mutant/IC50 wild-type (ratio (IC50 mutant/IC50 wild-type)) [2]
B1	500	> 500	> 100
B2	> 500	500	> 100
B3	> 500	> 500	> 100
B4	2.5	25	2.5
B5	> 500	> 500	> 100
B6			1
B7			2.5
B8			5
B9			7
B10			> 1000
B11			> 1000

From US7294706
